Data as given in paper PMC8041789.

Assays:
[1] = target: von Willebrand factor-binding protein (recombinant vWbp) (S. aureus); assay: AFM single-molecule force spectroscopy; vWF-modified tips probing vWbp-modified gold supports (NHS/EDC coupling); PBS; 10 µm x 10 µm areas
[2] = target: clumping factor A (ClfA wild type) on S. aureus ClfA+ cells (S. aureus) (UniProt Q53653); assay: AFM single-molecule force spectroscopy; vWbp-modified tips probing ClfA+ cells; minimum contact time (~100 ms); PBS
[3] = target: clumping factor A (ClfA wild type) on S. aureus ClfA+ cells (S. aureus) (UniProt Q53653); assay: AFM single-molecule force spectroscopy; vWbp-modified tips probing ClfA+ cells; contact time 500 ms before retraction; PBS

| Substance | binding frequency [1] | rupture force [1] | binding frequency [2] | binding frequency [3] | rupture force [3] |
| --- | --- | --- | --- | --- | --- |
| von Willebrand factor (human plasma vWF) (from UniProt P04275 764-2813) (natural protein) | 24% | 136 pN | – | – | – |
| von Willebrand factor-binding protein (recombinant vWbp) (natural protein) | – | – | 3% | 11% | 446 pN |
